In the supplement of paper PMC9428881:
± gives the standard error.

Assay: background-corrected fluorescence of 3'-dye-labeled ssDNA relative to brightest sequence (3'-GCGCG) (fraction); higher = brighter dye fluorescence (less quenching)
Summary of the method: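 By light-directed phosphoramidite synthesis, single-stranded DNA ending in a 3' Cy3 or Cy5 dye beside each of 1024 permuted pentamers was built on glass slides. Scanning at 532 or 635 nm took place before and after overnight ethylenediamine/ethanol deprotection. Data are means of 10 features per array over at least 3 syntheses. Fluorescence is corrected for unlabeled-oligo background and scaled to the brightest sequence.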

## TTTTTTGCGCATCAGCATGATTTTTTTTTTTTTTTATGTC [CTGTA]
dye: Cy3 (3' terminal)
  background-corrected fluorescence: 0.454 ± 0.021
dye: Cy5 (3' terminal)
  background-corrected fluorescence: 0.351 ± 0.046

## TTTTTGCATGATGCTGCTCATTTTTTTTTTTTTTTTCAAG [GAACT]
dye: Cy3 (3' terminal)
  background-corrected fluorescence: 0.515 ± 0.054
dye: Cy5 (3' terminal)
  background-corrected fluorescence: 0.39 ± 0.042

## TTTTTTGCTCAGCATCAGCATTTTTTTTTTTTTTTAGTGT [TGTGA]
dye: Cy3 (3' terminal)
  background-corrected fluorescence: 0.572 ± 0.021
dye: Cy5 (3' terminal)
  background-corrected fluorescence: 0.474 ± 0.033

## TTTTTTGATGATGCTGCTCATTTTTTTTTTTTTTTCCAAG [GAACC]
dye: Cy3 (3' terminal)
  background-corrected fluorescence: 0.521 ± 0.029
dye: Cy5 (3' terminal)
  background-corrected fluorescence: 0.384 ± 0.029

## TTTTTTGATGATCATGCTGATTTTTTTTTTTTTTTCCGAC [CAGCC]
dye: Cy3 (3' terminal)
  background-corrected fluorescence: 0.464 ± 0.024
dye: Cy5 (3' terminal)
  background-corrected fluorescence: 0.374 ± 0.068

## TTTTTTCATGCGCATCATGCTTTTTTTTTTTTTTTGATGA [AGTAG]
dye: Cy3 (3' terminal)
  background-corrected fluorescence: 0.653 ± 0.035
dye: Cy5 (3' terminal)
  background-corrected fluorescence: 0.518 ± 0.062

## TTTTTTGAGCATCATGAGCATTTTTTTTTTTTTTTCTGCT [TCGTC]
dye: Cy3 (3' terminal)
  background-corrected fluorescence: 0.492 ± 0.021
dye: Cy5 (3' terminal)
  background-corrected fluorescence: 0.39 ± 0.049

## TTTTTTGAGCATCATCATCATTTTTTTTTTTTTTTCTGGG [GGGTC]
dye: Cy3 (3' terminal)
  background-corrected fluorescence: 0.668 ± 0.018
dye: Cy5 (3' terminal)
  background-corrected fluorescence: 0.563 ± 0.043

## TTTTTTGCTGCGCATGCTGCTTTTTTTTTTTTTTTAATAA
dye: Cy3 (3' terminal)
  background-corrected fluorescence: 0.578 ± 0.031
dye: Cy5 (3' terminal)
  background-corrected fluorescence: 0.446 ± 0.022

## TTTTTTCATGCTCAGCAGCATTTTTTTTTTTTTTTGAGTT
dye: Cy3 (3' terminal)
  background-corrected fluorescence: 0.621 ± 0.031
dye: Cy5 (3' terminal)
  background-corrected fluorescence: 0.422 ± 0.024

## TTTTTTCATCATCATCAGCATTTTTTTTTTTTTTTGGGGT
dye: Cy3 (3' terminal)
  background-corrected fluorescence: 0.741 ± 0.023
dye: Cy5 (3' terminal)
  background-corrected fluorescence: 0.626 ± 0.053

## TTTTTTGATGATCATCATGCTTTTTTTTTTTTTTTCCGGA [AGGCC]
dye: Cy3 (3' terminal)
  background-corrected fluorescence: 0.773 ± 0.024
dye: Cy5 (3' terminal)
  background-corrected fluorescence: 0.714 ± 0.045

## TTTTTTGATGAGCATCATGATTTTTTTTTTTTTTTCCTGC [CGTCC]
dye: Cy3 (3' terminal)
  background-corrected fluorescence: 0.485 ± 0.028
dye: Cy5 (3' terminal)
  background-corrected fluorescence: 0.394 ± 0.032

## TTTTTTCATGCTCATGCTGCTTTTTTTTTTTTTTTGAGAA [AAGAG]
dye: Cy3 (3' terminal)
  background-corrected fluorescence: 0.645 ± 0.032
dye: Cy5 (3' terminal)
  background-corrected fluorescence: 0.513 ± 0.026

## TTTTTTGAGCAGCATGATCATTTTTTTTTTTTTTTCTTCG [GCTTC]
dye: Cy3 (3' terminal)
  background-corrected fluorescence: 0.477 ± 0.0068
dye: Cy5 (3' terminal)
  background-corrected fluorescence: 0.384 ± 0.019

## TTTTTTCATCATGATGATGCTTTTTTTTTTTTTTTGGCCA [ACCGG]
dye: Cy3 (3' terminal)
  background-corrected fluorescence: 0.518 ± 0.025
dye: Cy5 (3' terminal)
  background-corrected fluorescence: 0.425 ± 0.025

## TTTTTGCATGCTGCGCATGCTTTTTTTTTTTTTTTTAATA [ATAAT]
dye: Cy3 (3' terminal)
  background-corrected fluorescence: 0.56 ± 0.0062
dye: Cy5 (3' terminal)
  background-corrected fluorescence: 0.458 ± 0.047

## TTTTTTGCTCATCATCAGCATTTTTTTTTTTTTTTAGGGT [TGGGA]
dye: Cy3 (3' terminal)
  background-corrected fluorescence: 0.7155 ± 0.0051
dye: Cy5 (3' terminal)
  background-corrected fluorescence: 0.587 ± 0.027

## TTTTTTGCTCATGATGCTGATTTTTTTTTTTTTTTAGCAC [CACGA]
dye: Cy3 (3' terminal)
  background-corrected fluorescence: 0.415 ± 0.019
dye: Cy5 (3' terminal)
  background-corrected fluorescence: 0.328 ± 0.012

## TTTTTTGATCATCATGAGCATTTTTTTTTTTTTTTCGGCT
dye: Cy3 (3' terminal)
  background-corrected fluorescence: 0.583 ± 0.016
dye: Cy5 (3' terminal)
  background-corrected fluorescence: 0.431 ± 0.021

## TTTTTTGCTCATGATGCTCATTTTTTTTTTTTTTTAGCAG [GACGA]
dye: Cy3 (3' terminal)
  background-corrected fluorescence: 0.574 ± 0.018
dye: Cy5 (3' terminal)
  background-corrected fluorescence: 0.42 ± 0.02

## TTTTTTGATCATGCTGAGCATTTTTTTTTTTTTTTCGACT [TCAGC]
dye: Cy3 (3' terminal)
  background-corrected fluorescence: 0.488 ± 0.019
dye: Cy5 (3' terminal)
  background-corrected fluorescence: 0.363 ± 0.028

## TTTTTTGATGATGCTCATGATTTTTTTTTTTTTTTCCAGC [CGACC]
dye: Cy3 (3' terminal)
  background-corrected fluorescence: 0.503 ± 0.036
dye: Cy5 (3' terminal)
  background-corrected fluorescence: 0.395 ± 0.02

## TTTTTTGCTCATCATGCGCATTTTTTTTTTTTTTTAGGAT
dye: Cy3 (3' terminal)
  background-corrected fluorescence: 0.637 ± 0.019
dye: Cy5 (3' terminal)
  background-corrected fluorescence: 0.463 ± 0.028

## TTTTTTGATCATGATGATGATTTTTTTTTTTTTTTCGCCC [CCCGC]
dye: Cy3 (3' terminal)
  background-corrected fluorescence: 0.406 ± 0.032
dye: Cy5 (3' terminal)
  background-corrected fluorescence: 0.308 ± 0.055

## TTTTTTGATCATGAGCATCATTTTTTTTTTTTTTTCGCTG [GTCGC]
dye: Cy3 (3' terminal)
  background-corrected fluorescence: 0.534 ± 0.014
dye: Cy5 (3' terminal)
  background-corrected fluorescence: 0.423 ± 0.043

## TTTTTTCATGAGCATGCTCATTTTTTTTTTTTTTTGCTAG [GATCG]
dye: Cy3 (3' terminal)
  background-corrected fluorescence: 0.57 ± 0.036
dye: Cy5 (3' terminal)
  background-corrected fluorescence: 0.422 ± 0.053

## TTTTTGCAGCATGCGCAGCATTTTTTTTTTTTTTTTTATT
dye: Cy3 (3' terminal)
  background-corrected fluorescence: 0.5242 ± 0.0046
dye: Cy5 (3' terminal)
  background-corrected fluorescence: 0.403 ± 0.029

## TTTTTTGCGCAGCATGATCATTTTTTTTTTTTTTTATTCG [GCTTA]
dye: Cy3 (3' terminal)
  background-corrected fluorescence: 0.519 ± 0.034
dye: Cy5 (3' terminal)
  background-corrected fluorescence: 0.388 ± 0.021

## TTTTTTGAGCATGCTGCTGATTTTTTTTTTTTTTTCTAAC [CAATC]
dye: Cy3 (3' terminal)
  background-corrected fluorescence: 0.407 ± 0.026
dye: Cy5 (3' terminal)
  background-corrected fluorescence: 0.316 ± 0.032

## TTTTTTGATGATGCTGATCATTTTTTTTTTTTTTTCCACG [GCACC]
dye: Cy3 (3' terminal)
  background-corrected fluorescence: 0.513 ± 0.025
dye: Cy5 (3' terminal)
  background-corrected fluorescence: 0.386 ± 0.021

## TTTTTTGAGCATCATCATGATTTTTTTTTTTTTTTCTGGC [CGGTC]
dye: Cy3 (3' terminal)
  background-corrected fluorescence: 0.533 ± 0.0091
dye: Cy5 (3' terminal)
  background-corrected fluorescence: 0.439 ± 0.035

## TTTTTTGCTGAGCATCATGCTTTTTTTTTTTTTTTACTGA [AGTCA]
dye: Cy3 (3' terminal)
  background-corrected fluorescence: 0.654 ± 0.04
dye: Cy5 (3' terminal)
  background-corrected fluorescence: 0.475 ± 0.024

## TTTTTTGATCATGCGCATGCTTTTTTTTTTTTTTTCGATA [ATAGC]
dye: Cy3 (3' terminal)
  background-corrected fluorescence: 0.595 ± 0.036
dye: Cy5 (3' terminal)
  background-corrected fluorescence: 0.427 ± 0.025

## TTTTTGCAGCATGCTCATCATTTTTTTTTTTTTTTTTAGG [GGATT]
dye: Cy3 (3' terminal)
  background-corrected fluorescence: 0.612 ± 0.027
dye: Cy5 (3' terminal)
  background-corrected fluorescence: 0.489 ± 0.054
